What was measured:
Test in all cases: cell-based or functional assay
[1] = target: insulin growth factor II receptor (human) (UniProt P11717)
[2] = target: insulin growth factor I receptor (human) (UniProt P08069)
[3] = target: epidermal growth factor receptor (human) (UniProt P00533)

Chain of UniProt P08069 (P08069 31-1367): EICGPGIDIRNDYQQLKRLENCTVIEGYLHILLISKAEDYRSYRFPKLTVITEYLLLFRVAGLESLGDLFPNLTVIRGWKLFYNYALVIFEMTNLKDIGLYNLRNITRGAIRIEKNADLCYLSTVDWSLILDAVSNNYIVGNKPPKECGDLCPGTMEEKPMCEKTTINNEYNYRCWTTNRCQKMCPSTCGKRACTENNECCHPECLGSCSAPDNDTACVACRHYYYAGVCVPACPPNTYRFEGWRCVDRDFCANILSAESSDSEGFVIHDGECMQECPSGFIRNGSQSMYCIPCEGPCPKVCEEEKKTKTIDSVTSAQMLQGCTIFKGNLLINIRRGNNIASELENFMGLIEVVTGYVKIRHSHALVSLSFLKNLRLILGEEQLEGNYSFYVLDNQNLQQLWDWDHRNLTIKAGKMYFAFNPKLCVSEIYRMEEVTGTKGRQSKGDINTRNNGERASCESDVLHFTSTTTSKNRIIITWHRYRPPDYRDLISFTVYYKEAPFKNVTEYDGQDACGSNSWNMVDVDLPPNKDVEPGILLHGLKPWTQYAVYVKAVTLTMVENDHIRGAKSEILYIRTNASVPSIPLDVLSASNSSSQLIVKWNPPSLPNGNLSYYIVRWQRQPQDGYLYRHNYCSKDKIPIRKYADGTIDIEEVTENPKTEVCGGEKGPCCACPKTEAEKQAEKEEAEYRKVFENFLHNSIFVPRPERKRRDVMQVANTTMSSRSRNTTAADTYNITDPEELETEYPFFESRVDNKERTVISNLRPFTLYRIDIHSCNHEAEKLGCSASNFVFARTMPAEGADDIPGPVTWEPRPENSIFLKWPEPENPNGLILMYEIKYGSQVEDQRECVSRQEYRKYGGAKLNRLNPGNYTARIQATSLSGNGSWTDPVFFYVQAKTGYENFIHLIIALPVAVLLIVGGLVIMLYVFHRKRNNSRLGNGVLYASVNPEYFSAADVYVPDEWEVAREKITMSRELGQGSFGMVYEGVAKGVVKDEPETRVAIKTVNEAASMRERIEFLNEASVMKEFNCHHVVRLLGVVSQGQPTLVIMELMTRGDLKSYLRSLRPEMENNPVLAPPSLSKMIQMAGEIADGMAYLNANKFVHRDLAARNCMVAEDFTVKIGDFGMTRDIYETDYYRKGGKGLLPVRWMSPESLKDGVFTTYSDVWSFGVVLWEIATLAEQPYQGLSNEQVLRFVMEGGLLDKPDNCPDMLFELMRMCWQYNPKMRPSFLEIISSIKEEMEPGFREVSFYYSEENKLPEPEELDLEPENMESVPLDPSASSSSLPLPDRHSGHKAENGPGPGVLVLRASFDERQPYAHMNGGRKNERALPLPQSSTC
Chain of UniProt P11717 (P11717 41-2491): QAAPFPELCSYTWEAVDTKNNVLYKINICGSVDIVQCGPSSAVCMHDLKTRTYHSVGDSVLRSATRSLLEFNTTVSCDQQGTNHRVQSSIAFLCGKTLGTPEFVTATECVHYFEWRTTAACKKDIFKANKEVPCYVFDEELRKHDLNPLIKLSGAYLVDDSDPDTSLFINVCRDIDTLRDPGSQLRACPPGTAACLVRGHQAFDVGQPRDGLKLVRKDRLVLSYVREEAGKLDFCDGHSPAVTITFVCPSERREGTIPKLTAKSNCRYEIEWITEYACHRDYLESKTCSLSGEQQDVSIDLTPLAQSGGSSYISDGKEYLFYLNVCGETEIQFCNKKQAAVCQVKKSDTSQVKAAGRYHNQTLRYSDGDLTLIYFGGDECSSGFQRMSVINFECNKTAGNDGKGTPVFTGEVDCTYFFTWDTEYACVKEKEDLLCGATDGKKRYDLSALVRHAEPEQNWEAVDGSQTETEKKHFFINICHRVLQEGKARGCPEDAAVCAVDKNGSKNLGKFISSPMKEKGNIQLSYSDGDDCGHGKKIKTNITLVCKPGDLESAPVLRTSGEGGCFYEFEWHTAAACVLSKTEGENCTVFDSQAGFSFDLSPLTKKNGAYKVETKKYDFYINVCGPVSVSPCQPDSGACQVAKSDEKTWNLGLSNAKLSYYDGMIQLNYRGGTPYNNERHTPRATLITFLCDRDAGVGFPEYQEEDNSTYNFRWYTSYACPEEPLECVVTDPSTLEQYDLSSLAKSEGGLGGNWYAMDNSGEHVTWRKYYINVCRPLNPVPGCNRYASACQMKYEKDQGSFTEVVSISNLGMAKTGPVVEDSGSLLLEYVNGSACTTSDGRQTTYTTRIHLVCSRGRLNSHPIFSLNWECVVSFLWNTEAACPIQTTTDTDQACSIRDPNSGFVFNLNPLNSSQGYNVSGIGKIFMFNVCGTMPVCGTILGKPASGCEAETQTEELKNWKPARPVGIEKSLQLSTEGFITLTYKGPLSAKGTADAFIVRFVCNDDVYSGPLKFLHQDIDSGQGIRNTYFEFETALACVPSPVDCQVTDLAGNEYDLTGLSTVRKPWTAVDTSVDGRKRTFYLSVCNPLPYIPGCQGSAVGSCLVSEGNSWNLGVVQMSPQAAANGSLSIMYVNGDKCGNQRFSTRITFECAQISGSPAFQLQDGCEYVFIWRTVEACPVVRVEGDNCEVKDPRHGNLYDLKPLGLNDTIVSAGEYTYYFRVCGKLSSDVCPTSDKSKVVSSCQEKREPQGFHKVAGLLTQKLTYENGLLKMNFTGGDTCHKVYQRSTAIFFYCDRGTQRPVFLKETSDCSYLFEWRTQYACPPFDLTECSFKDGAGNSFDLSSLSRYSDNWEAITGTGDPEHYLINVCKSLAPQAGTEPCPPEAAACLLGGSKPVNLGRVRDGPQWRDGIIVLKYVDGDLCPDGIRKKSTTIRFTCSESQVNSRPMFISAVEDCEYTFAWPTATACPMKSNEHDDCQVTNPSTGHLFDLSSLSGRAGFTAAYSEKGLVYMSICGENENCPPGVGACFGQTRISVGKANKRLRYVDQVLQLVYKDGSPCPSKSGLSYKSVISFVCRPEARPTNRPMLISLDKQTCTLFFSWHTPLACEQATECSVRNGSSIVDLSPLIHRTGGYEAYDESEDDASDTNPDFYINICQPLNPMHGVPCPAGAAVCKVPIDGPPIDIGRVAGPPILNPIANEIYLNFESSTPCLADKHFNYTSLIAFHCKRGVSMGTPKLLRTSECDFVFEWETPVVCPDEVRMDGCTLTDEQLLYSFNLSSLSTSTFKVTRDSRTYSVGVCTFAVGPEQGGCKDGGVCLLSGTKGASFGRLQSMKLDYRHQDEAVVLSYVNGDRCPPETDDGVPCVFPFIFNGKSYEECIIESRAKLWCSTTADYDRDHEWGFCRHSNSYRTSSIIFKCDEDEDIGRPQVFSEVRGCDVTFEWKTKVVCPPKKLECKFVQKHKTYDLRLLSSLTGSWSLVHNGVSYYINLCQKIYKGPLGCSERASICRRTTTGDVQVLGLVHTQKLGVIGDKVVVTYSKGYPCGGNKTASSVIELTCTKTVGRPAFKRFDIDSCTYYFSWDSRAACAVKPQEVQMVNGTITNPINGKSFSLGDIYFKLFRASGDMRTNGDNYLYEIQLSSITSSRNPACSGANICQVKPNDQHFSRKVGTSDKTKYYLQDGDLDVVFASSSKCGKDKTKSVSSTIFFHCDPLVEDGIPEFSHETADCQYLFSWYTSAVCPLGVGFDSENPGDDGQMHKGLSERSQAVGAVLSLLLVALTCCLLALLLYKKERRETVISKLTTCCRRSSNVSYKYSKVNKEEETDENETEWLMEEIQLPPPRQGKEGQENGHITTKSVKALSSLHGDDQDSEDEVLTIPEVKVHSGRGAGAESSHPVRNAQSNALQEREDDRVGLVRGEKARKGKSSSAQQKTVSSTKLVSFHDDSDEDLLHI

Substance | Percentage of β-gal positive cells, SMMC-7721 [1] | Percentage of β-gal positive cells, SMMC-7721 [2] | Percentage of β-gal (+) cells, 3AO [3] | Percentage of β-gal (+) cells, BEL-7402 [3] | Percentage of β-gal (+) cells, Bcap-37 [3] | Percentage of β-gal (+) cells, SMMC-7721 [3] | Percentage of β-gal (+) cells, SPC-A1 [3] | Percentage of β-gal (+) cells, U87 [3]
E5-polylysine/HA20-polylysine/pSV β-gal DNA | 60% | 60% |  |  |  |  |  | 
E5-polylysine/pSV β-gal DNA | 10% | 10% |  |  |  |  |  | 
GE7-polylysine/HA20-polylysine/pSV-β-gal DNA |  |  | > 65% | > 90% | > 80% | > 80% | > 80% | > 30%

From US6339139
